# Fewer inactive variants are shown than the library holds.
# B1: TPR 5TU (parent)
# chain: GGAUCUUCUCGAUCUAACAAAAAAGACAAAUCUGCCACAAAGCUUGAGAGCAUCUUCGGAUGCAGAGGCGGCAGCCUUCGGUGGCGCGAUAGCGCCAACGUUCUCAACUAUGACACGCAAAACGCGUGCUCCGUUGAAUGGAGUUUAUCAUG
# Variants of: B1
# Assay: polymerase ribozyme fitness, log enrichment relative to wild type (log ratio); higher = more active; in vitro selection for triplet polymerase activity
# Outline: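 To select mutant libraries of each subunit of a heterodimeric triplet polymerase ribozyme, built by PCR and transcribed, each was annealed with a biotinylated primer, partner subunit and triplets, then incubated frozen at −7 °C. Extended constructs were gel-excised, captured on streptavidin beads and amplified by RT-PCR, in one round carried out in triplicate. Illumina sequencing of input and output libraries kept genotypes with ≥10 input reads and ≥1 read per output. Fitness is the base-2 logarithm of genotype enrichment relative to wild-type enrichment, from inverse-variance-weighted replicate averages.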
row,Variant,polymerase ribozyme fitness (log ratio)
1,G88U U90C G133C A137C,≤ -4.2
2,G88U A91G,≤ -4.2
3,A89G C95G C132U,-3.36
4,G88A G94A C99G C103G U104A A107G,≤ -4.2
5,C87U C116A,1.21
6,G92C A142U,-2.07
7,C87U C108U,-3.61
8,A89C C103A,-2.11
9,C87U G88U,≤ -4.2
10,G92A U135A U145C,-3.89
11,A91G U104G A115C,-4.06
12,A89C C96U,-1.26
13,A91C A120G G126A,≤ -4.2
14,A89C C96U A97C C99U,-3.09
15,C87G A89U,≤ -4.2
16,C87G U104G,≤ -4.2
17,G92A C118G,-3.69
18,C87U C118U A147U,-0.411
19,C87G G94C C132G,≤ -4.2
20,A91C A107U,≤ -4.2
21,G88U C108A,≤ -4.2

row,Variant,polymerase ribozyme fitness (log ratio)
1,A91C G152U,≤ -4.2
2,C87U A98C,-1.07
3,C87U A98G,-1.67
4,C87G C105G,≤ -4.2
5,A91C U109G G140U,≤ -4.2
6,A91G G126A G141A,-3.67
7,C87U A142G,-0.623
8,C87U A106G,-0.549
9,C87G G92C G126A,0.48
10,A89U A150U,1.51
11,A89U A150G,-0.42
12,C87U A137G U148C,-3.87
13,U90A A91C U102G U151G,≤ -4.2
14,G92A G136C,-3.83
15,G88C C114U G141U,≤ -4.2
16,U90C,-2.87
17,U90A,-4.07
18,U90G,≤ -4.2
19,A89C C93U G136C,≤ -4.2
20,A89U C95G A122G,-1.39
21,G92A U104A A106C C108A,≤ -4.2

row,Variant,polymerase ribozyme fitness (log ratio)
1,C87A U151G,≤ -4.2
2,C87U A121U,-0.38
3,G92A U101G C149U,-3.56
4,C87U A106G U139C,-3.59
5,A89U G141C,-0.255
6,C87U G152C,-3.17
7,A91U A113C,≤ -4.2
8,A91G C96U A106G,-2.5
9,A91U C99G,≤ -4.2
10,G92C G124U G152U,-3.69
11,C87U U145A,0.0527
12,C87U U145G,-1.51
13,G88C C108G,≤ -4.2
14,A91U G128A U139C A150U,≤ -4.2
15,G92A U104G A110G,-3.8
16,A91G G100U A113U A120G C125A U139G,≤ -4.2
17,A91C C108G A120U,≤ -4.2
18,U90G G126U A147U,-3.95
19,A91C C95U C103G C116G,≤ -4.2
20,A89G U111C,≤ -4.2
21,G88A A110G,≤ -4.2

row,Variant,polymerase ribozyme fitness (log ratio)
1,G88A G136A,-3.83
2,C87U U148A,-3.62
3,C87U U90C U134A A138U G143A,≤ -4.2
4,C87U A91U A98G A138G G152A,≤ -4.2
5,G88C C116U,-3.99
6,A91C,≤ -4.2
7,A91G,-2.77
8,A89C U148C,-3.51
9,A91C A150G,≤ -4.2
10,A91G G92A C125G C129G A137G,≤ -4.2
11,G88U C99U,-4.12
12,G88U C99A,-4.1
13,C87U A110G G112U,≤ -4.2
14,G92A C105A A147U,-4.16
15,C87G U111G,≤ -4.2
16,C87U C125A C131U,0.186
17,A91C C125A U135C,≤ -4.2
18,C87U C118U G143C,-2.54
19,C87G C105U A137C A150U,≤ -4.2
20,G92A C105A,-3.36
